Assay [1] has as its target Fluorescein-SpPBP2x1-29 (S. pneumoniae R6). Kind of assay: fluorescence polarisation. In general terms: In fluorescence polarisation assays a small probe gives low polarisation when free and higher when bound to something large.
Assay [2] addresses TAMRA-SpPBP2a23-45 Arg31Lys (S. pneumoniae R6). Kind of assay: fluorescence polarisation.
Assay [3] addresses TAMRA-SpPBP2a23-45 Arg31LysArg33Lys (S. pneumoniae R6). Briefly: fluorescence polarisation.
In assay [4] the target is TAMRA-SpPBP2a23-45 Arg33Ala (S. pneumoniae R6). Kind of assay: fluorescence polarisation.
Assay [5] deals with TAMRA-SpPBP2a23-45 Arg33Lys (S. pneumoniae R6). Briefly: fluorescence polarisation.
Assay [6] deals with TAMRA-SpPBP2a23-45 Arg36Ala (S. pneumoniae R6). Kind of assay: fluorescence polarisation.
Assay [7] has as its target TAMRA-SpPBP2a23-45 Ser32Ala (S. pneumoniae R6). Kind of assay: fluorescence polarisation.
In assay [8] the target is TAMRA-SpPBP2a23-45 wildtype (S. pneumoniae R6). Briefly: fluorescence polarisation.
For assay [9], the target named is Fluorescein-LmPBPA11-20 Arg12Ala (L. monocytogenes EGD-e). Kind of assay: fluorescence polarisation.
In assay [10] the target is Fluorescein-LmPBPA11-20 Arg8Ala (L. monocytogenes EGD-e). Briefly: fluorescence polarisation.
Assay [11] addresses Fluorescein-LmPBPA11-20 Arg8AlaSer16Arg (L. monocytogenes EGD-e). Briefly: fluorescence polarisation.
Assay [12] deals with Fluorescein-LmPBPA11-20 wildtype (L. monocytogenes EGD-e). Briefly: fluorescence polarisation.
In a further assay the target is T1, BsGpsB (Bacillus subtilis, UniProt P0CI74).
T1 construct: new FP data concerning full length BsGpsB have now been added to; made in house; host or cells: E. coli BL21(DE3)
T1 sequence (P0CI74 whole entry): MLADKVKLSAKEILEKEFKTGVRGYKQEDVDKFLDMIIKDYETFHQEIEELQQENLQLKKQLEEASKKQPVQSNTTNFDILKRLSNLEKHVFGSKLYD
Kind of assay: BACTH interaction with BsGpsB. Format: cell-based. Conditions: E. coli BTH101, nutrient agar, 30 °C.

The target of another assay is T2, BsGpsB1-68 Tyr25Phe (B. subtilis, UniProt P0CI74 1-68, Tyr25Phe).
T2 construct: GpsB, Bacillus subtilis, residues 1-68 (N-terminal domain); also called BsGpsB1-68 Y25F; source: E. coli BL21(DE3), purified (Ni-NTA, thrombin removal of the His6-tag, SEC); not shown: His6, N-terminal, cleaved
T2 sequence (looked up): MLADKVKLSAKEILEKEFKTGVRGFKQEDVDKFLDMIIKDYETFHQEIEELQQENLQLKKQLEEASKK
Briefly: fluorescence polarisation; GpsB protein titrated into TAMRA- or fluorescein-labelled peptide; 10 mM Tris.HCl pH 8.0, 250 mM NaCl, 0.1% reduced Triton X-100; all data fitted to a 1:1 interaction model, Kd ± standard error. The settings on record: both partners purified.

The target in another assay is T3, BsGpsB1-68 Asp31Ala (B. subtilis, UniProt P0CI74 1-68, Asp31Ala).
T3 construct: GpsB, Bacillus subtilis, residues 1-68 (N-terminal domain); also called BsGpsB1-68 D31A; source: E. coli BL21(DE3), purified (Ni-NTA, thrombin removal of the His6-tag, SEC); not shown: His6, N-terminal, cleaved
T3 sequence (looked up): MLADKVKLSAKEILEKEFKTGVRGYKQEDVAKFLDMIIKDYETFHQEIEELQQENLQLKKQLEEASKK
The assay is described as above. The settings on record: both partners purified.

In another assay the target is T4, SpGpsB_(1-63) (S. pneumoniae R6, UniProt Q8DR57 1-63).
T4 construct: GpsB, Streptococcus pneumoniae R6, residues 1-63 (stop codon in place of Pro64); also called N-terminal domain of SpGpsB; wildtype SpGpsB_(1-63); source: E. coli, purified (Ni-NTA, thrombin, ammonium sulphate precipitation, gel filtration)
T4 sequence (looked up): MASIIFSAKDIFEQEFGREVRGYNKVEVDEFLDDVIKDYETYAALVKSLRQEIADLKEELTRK
Kind of assay: fluorescence polarisation. Conditions: both partners purified.

The target of assay [13] is T5, BsYpbE_(1-21), fluorescein-labelled (B. subtilis, UniProt P50731 1-21, fluorescein (position not given)).
T5 construct: also called 21-residue fragment of the cytoplasmic domain of BsYpbE; source: synthetic peptide
T5 peptide: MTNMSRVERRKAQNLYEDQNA
Briefly: fluorescence polarisation. Conditions: both partners purified.

For assay [14], the target named is T6, BsPBP1_(1-32), TAMRA-labelled at position 16 (B. subtilis, UniProt P39793 1-32, Ser16Cys, TAMRA (maleimide) at position 16).
T6 construct: PBP1, Bacillus subtilis, residues 1-32; also called BsPBPA1_(1-32); BsPBP1A_(1-32); source: E. coli, His-tagged MBP fusion purified (Ni-NTA), labelled, TEV-cleaved, ultrafiltration
T6 peptide (looked up): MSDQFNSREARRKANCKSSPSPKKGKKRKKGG
Kind of assay: fluorescence polarisation; GpsB protein titrated into fluorescently labelled peptide; 10 mM Tris.HCl pH 8.0, 250 mM NaCl, 0.1% reduced Triton X-100; fit to a 1:1 interaction model. The settings on record: both partners purified.

The target of assay [15] is T7, BsYrrS_(1-18), fluorescein-labelled (B. subtilis, UniProt O32031 1-18, also: fluorescein label, position not given here).
T7 construct: YrrS, Bacillus subtilis, residues 1-18; also called entire cytoplasmic mini-domain of BsYrrS
T7 peptide (looked up): MSNNQSRYENRDKRRKAN
Described as above. Conditions: both partners purified.

Data on 10 molecules can be found in publication PMC6335420, “The cell cycle regulator GpsB functions as cytosolic adaptor for multiple cell wall enzymes” (Nature Communications, 2019).

Usually Kd stands for the concentration at which binding is half-saturated. Low readings indicate a tighter complex, high ones a looser complex.

No end group written: not given here. C(fluorescein) = cysteine carrying a fluorescein label

Regarding SpGpsB1-63 (domain or fragment), the equilibrium dissociation constant (Kd) is 370 µM in assay [1]; 150 µM in assay [2]; > 2000 µM in assay [3]; 530 µM in [4]; 360 µM in [5]; 270 µM in assay [6]. Moreover, the Kd in assay [7] was determined as 210 µM.

As for “SpGpsB1-63 Asp33Ala (domain or fragment)”, the Kd in assay [8] was > 3000 µM.

As for “BsGpsB1-68 Lys32Glu (from UniProt P0CI74 1-68) (domain or fragment)”, the Kd in assay [9] is 800 µM; in [10], > 3000 µM; in assay [11] it was > 2000 µM; in assay [12], 190 µM.

B1: BsYrrS: B. subtilis YrrS (protein, UniProt O32031 1-233, looked up)
Uncharacterized membrane …: MSNNQSRYENRDKRRKANLVLNILIAIVSILIVVVAANLFINSPSSKDVSKDSETAQKQESPASGKTEKKSDEDIKDSKKDTSDSEKDSEKSSDSDSKKDDSSSKKDDSDSDSSSDSAGDGLKDAKVTEGGSSSDVEKTYENPDWKAVGTEQTGEHAATYDSSSQDWAEMLKAISYATGVSTDNMTVLWLGNNGSPQDAKGKILDKATGNKYQVTITWVDEKGWKPTKVEKLK
Consider B1, for which the “BACTH interaction with BsGpsB” value with BsGpsB is on record as “detected”.

On to MSNNQSRYENRDKRRKAN-{C(fluorescein)} [Fluoroescein-BsYrrS1-18], for which the Kd with BsGpsB1-68 Tyr25Phe and in the assay with BsGpsB1-68 Asp31Ala was > 3000 µM in each case.

B2: BsYpbE: B. subtilis YpbE, LysM-domain membrane protein (protein, UniProt P50731 1-240, looked up)
Uncharacterized protein YpbE: MTNMSRVERRKAQNLYEDQNAALADDYVDDGESLPTRQSVKNQREQKKKQGKTKTPLFTVLAVIFVFVPVIVLVTLFYLKSHPDNHDDYEDVFIDSSQSKYEVVPKSEDKNDTADTKETALQKESKKEPEDSKPKEQTAADKKQTAVAEKEDSPNKEEATAAAASSSQSTVQQQEQPAEPVQNVPNRVVKHTVQKKETLYRISMKYYKSRTGEEKIRAYNHLNGNDVYTGQVLDIPLMDE
Turning to B2, in the assay with BsGpsB, the “BACTH interaction with BsGpsB” value is reported as “detected”.

B3: SpPBP2a_(23-45), TAMRA-labelled (peptide)
peptide: DSDSTILRRSRSDRKKLAQVCPI
modifications: also: TAMRA (maleimide) label, site not given here
notes: source: E. coli, His-tagged MBP fusion purified (Ni-NTA), labelled, TEV-cleaved, ultrafiltration
In the case of B3, the Kd with SpGpsB_(1-63) was 80 µM.

B4: SpPBP2x_(1-29), fluorescently labelled (peptide)
peptide: GSGMKWTKRVIRYATKNRKSPAENRRRVGKSLCS
modifications: also: TAMRA or fluorescein maleimide label, which one and site not given here
notes: as for B3
In the case of B4, the binding result in the assay with SpGpsB_(1-63) was “binds”.

B5: BsGpsB_(1-68)^Asp31Ala (domain or fragment, B. subtilis, UniProt P0CI74 1-68, looked up)
chain: MLADKVKLSAKEILEKEFKTGVRGYKQEDVAKFLDMIIKDYETFHQEIEELQQENLQLKKQLEEASKK
notes: GpsB, Bacillus subtilis, residues 1-68; also called BsGpsB^Asp31Ala; source: E. coli, purified (Ni-NTA, thrombin, size exclusion)
B5: the “fold reduction in affinity against wild type” value was ~40 fold in assay [13], > 8 fold in assay [14] and 7 fold in assay [15].

B6: BsGpsB_(1-68)^Tyr25Phe (domain or fragment, B. subtilis, UniProt P0CI74 1-68, looked up)
chain: MLADKVKLSAKEILEKEFKTGVRGFKQEDVDKFLDMIIKDYETFHQEIEELQQENLQLKKQLEEASKK
notes: GpsB, Bacillus subtilis, residues 1-68; the making of this mutant is not described in the methods; also called BsGpsB^Tyr25Phe; source: E. coli, purified (Ni-NTA, thrombin, size exclusion)
Take B6: the “fold reduction in affinity against wild type” value in assay [13] was ~40 fold; in [14], > 8 fold; in [15], 7 fold.
